Where a chain is given by its changes, count along the chain named.
B1: R1-7 (scFv, not shown: small tags and cut ends)
scFv: QSLEESGGRLVTPGTPLTLTCTVSGIDLRRYAMGWVRQAPGKGLQWIGIIASGNTDYASWAKGRFTISATSTTVDLKITSPTTEDTATYFCARYSGDNGGTLNLWGPGTLVTVTSGGGGSGGGGSGGGGSELVMTQTAASVSEPVGGTVTIKCQASQSISSYLAWYQQKPGQPPKLLIYAASNLASGVSSRFKGSGSGTEFTLTISDLECADAATYYCQSYYSISSYGNTFGGGTEVEITGS
B2: IgA R3-18 (scFv, not shown: small tags and cut ends)
scFv: QSLEESGGRLVTPGTPLTLTCTVSGIDLSSNAMTWVRQAPGEGLEWIGTISTGGSTYFASWAKGRFTISKTSTTVDLKITSPTTEDTATYFCATRYDSYGYAYNYWFGTLWGPGTLVTVTSGGGGSGGGGSGGGGSELVMTQTAASVSEPVGGTVTIKCQASQNINNELAWYQQKPGQRPKLLIYDASKLASGVPSRFSGSGSGTEFTLTISGMQCDDAATYYCQSTYYDGNYVYAFGGGTEVDVKGS
B3: R2-18 (scFv, not shown: small tags and cut ends)
scFv: B2 scFv
B4: R3-8 (scFv, not shown: small tags and cut ends)
scFv: B2 scFv with K158N, N164S, N166S, N167D, K189D, M214V, T227A, N232R, D244E, K246T
B5: R2-16 (scFv, not shown: small tags and cut ends)
scFv: QSVKESGGRLVTPGTPLTLTCTVSGFSLSSYAMGWVRQAPGKGLEYIGIISSSGSTYYASWAKGRFTISKTSTTVDLKITSPTTEDTATYFCARYSGDNGGALNLWGPGTLVTVTSGGGGSGGGGSGGGGSELDLTQTAASVSEPVGGTVTISCQSSQHIRSYLAWYQQKPGQPPKLLISAASTLASGVSSRFKGSGSGTEFTLTISDLECADAATYYCQRYYDIRNYGNGFGGGTEVEITGS
B6: R3-26 (scFv, not shown: small tags and cut ends)
scFv: QEQLVESGGGLVKPGGTLTLTCTVSGIDLSSYAMSWVRQVPGKGLEWIGIIGSGGGTAYANWAKGRFTISKTSSTTVDLKMTSLTTEDTATYFCATDYGIYGYAYGHLWGPGTLVTVTSGGGGSGGGGSGGGGSELVMTQTASPVSAAVGGTVTIKCQASQSISTALAWYQQRPGQPPKLLIYDASTLASGVSSRFKGSGSGTEFTLTISDLECADAATYYCQTYFGSDTDNAFGEGTEVEITGS
B7: R1-27 (scFv, not shown: small tags and cut ends)
scFv: QQQLMESGGGLVTPGTPLTLTCTVSGIDLRRYAMGWVRQAPGKGLQWIGIIASGNTDYASWAKGRFTISATSTTVDLKITSSTTEDTATYFCARYSGDNGGTLNLWGPGTLATVTTGGGGSGGGGSGGGGSELVMTQTAASVSEPVGGTVTIKCQASEHIRNYLAWYQQKPGQPPKLLIYTTSNLASGVPSRFSGSGSGTEYTLTISDLECADAATYYCQNYYDISTYGNTFGGGTEVDVKGS
B8: IgA R3-1 (scFv, not shown: small tags and cut ends)
scFv: QSVKESGGRLVTPGTPLTLTCTVSGIDLSSNAMSWVRQAPGEGLEWIGTISTVGKTYFASWAKGRFTISKTSTTVDLRITSPTTEDTATYFCATRYDSYGYAYNYWFGTLWGPGTLVTVTSGGGGSGGGGSGGGGSELDLTQTPPSVSGAVGGTVTIKCQASENINSELAWYQQKPGQRPKLLIYDASKLASGVPSRFSGSGSGTEYTLTISGMQCDDAATYYCQSTYYDGNYVYAFGGGTEVDVTRS
B9: R3-75 (scFv, not shown: small tags and cut ends)
scFv: B8 scFv
B10: R3-58 (scFv, not shown: small tags and cut ends)
scFv: QQQLMESGGRLVTPGGSLTLTCTVSGIDLNSYAMGWVRQAPGKGLEYIGIIRNSGNTYYASWAKGRFTISKTSSTTVDLKMTSLTTEDTATYFCARYSGDNGGALNLWGPGTLVTVTSGGGGSGGGGSGGGGSELVMTQTAASVSGPVGGTVTIKCQASEFIRNYLAWYQQKPGQPPKLLIYTTSNLASGVPSRFSGSGSGTEYTLTISDLECADAATYYCQNYYDISTYGNAFGGGTEVVVIKGS
B11: R3-23 (scFv, not shown: small tags and cut ends)
scFv: QSVKESEGRLVTPGTPLTLTCTVSGFSLSRYAVSWVRQAPGKGLEWIGIIGSGGSTSYATWARGRFTISKTSTTVDLKITSPTTEDTVTYFCGSYYDSHGYAYVSLWGPGTLVTVTSGGGGSGGGGSGGGGSELVLTQTPSPVSGAVGGTVTINCQASQSISTALAWYQQKPGQPPKLLIYSASTLASGVSSRFKGSGSGTGFTLTISDLECADAATYYCQSYYGSSSDNAFGGGTEVVIKRS
B12: R2-18 rabbit-derived single-chain antibody-His (scFv)
scFv: QSLEESGGRLVTPGTPLTLTCTVSGIDLSSNAMTWVRQAPGEGLEWIGTISTGGSTYFASWAKGRFTISKTSTTVDLKITSPTTEDTATYFCATRYDSYGYAYNYWFGTLWGPGTLVTVTSGGGGSGGGGSGGGGSELVMTQTAASVSEPVGGTVTIKCQASQNINNELAWYQQKPGQRPKLLIYDASKLASGVPSRFSGSGSGTEFTLTISGMQCDDAATYYCQSTYYDGNYVYAFGGGTEVDVKGSHHHHHH
B13: R1-27 rabbit-derived single-chain antibody-His (scFv)
scFv: QQQLMESGGGLVTPGTPLTLTCTVSGIDLRRYAMGWVRQAPGKGLQWIGIIASGNTDYASWAKGRFTISATSTTVDLKITSSTTEDTATYFCARYSGDNGGTLNLWGPGTLATVTTGGGGSGGGGSGGGGSELVMTQTAASVSEPVGGTVTIKCQASEHIRNYLAWYQQKPGQPPKLLIYTTSNLASGVPSRFSGSGSGTEYTLTISDLECADAATYYCQNYYDISTYGNTFGGGTEVDVKGSHHHHHH
B14: R3-23 rabbit-derived single-chain antibody-His (scFv)
scFv: QSVKESEGRLVTPGTPLTLTCTVSGFSLSRYAVSWVRQAPGKGLEWIGIIGSGGSTSYATWARGRFTISKTSTTVDLKITSPTTEDTVTYFCGSYYDSHGYAYVSLWGPGTLVTVTSGGGGSGGGGSGGGGSELVLTQTPSPVSGAVGGTVTINCQASQSISTALAWYQQKPGQPPKLLIYSASTLASGVSSRFKGSGSGTGFTLTISDLECADAATYYCQSYYGSSSDNAFGGGTEVVIKRSHHHHHH
B15: R1-7 rabbit-derived single-chain antibody-His (scFv)
scFv: QSLEESGGRLVTPGTPLTLTCTVSGIDLRRYAMGWVRQAPGKGLQWIGIIASGNTDYASWAKGRFTISATSTTVDLKITSPTTEDTATYFCARYSGDNGGTLNLWGPGTLVTVTSGGGGSGGGGSGGGGSELVMTQTAASVSEPVGGTVTIKCQASQSISSYLAWYQQKPGQPPKLLIYAASNLASGVSSRFKGSGSGTEFTLTISDLECADAATYYCQSYYSISSYGNTFGGGTEVEITGSHHHHHH
B16: R2-16 rabbit-derived single-chain antibody-His (scFv)
scFv: QSVKESGGRLVTPGTPLTLTCTVSGFSLSSYAMGWVRQAPGKGLEYIGIISSSGSTYYASWAKGRFTISKTSTTVDLKITSPTTEDTATYFCARYSGDNGGALNLWGPGTLVTVTSGGGGSGGGGSGGGGSELDLTQTAASVSEPVGGTVTISCQSSQHIRSYLAWYQQKPGQPPKLLISAASTLASGVSSRFKGSGSGTEFTLTISDLECADAATYYCQRYYDIRNYGNGFGGGTEVEITGSHHHHHH
B17: R3-75 rabbit-derived single-chain antibody-His (scFv)
scFv: QSVKESGGRLVTPGTPLTLTCTVSGIDLSSNAMSWVRQAPGEGLEWIGTISTVGKTYFASWAKGRFTISKTSTTVDLRITSPTTEDTATYFCATRYDSYGYAYNYWFGTLWGPGTLVTVTSGGGGSGGGGSGGGGSELDLTQTPPSVSGAVGGTVTIKCQASENINSELAWYQQKPGQRPKLLIYDASKLASGVPSRFSGSGSGTEYTLTISGMQCDDAATYYCQSTYYDGNYVYAFGGGTEVDVTRSHHHHHH

Each binder was assayed against human IgG1 antibody (#I5154; Sigma-Aldrich) (human) (assay: ELISA).

Row | OD | Binder
1 | 3.12 | B1
2 | 3.09 | B2
3 | 3.11 | B3
4 | 3.03 | B4
5 | 3.12 | B5
6 | 3.1 | B6
7 | 3.07 | B7
8 | 3.09 | B8
9 | 3.05 | B9
10 | 3.14 | B10
11 | 3.06 | B11

These binders were tested against human IgG2 antibody (#I5404; Sigma-Aldrich) (human) (assay: ELISA).

Row | OD | Binder
12 | 3.09 | B2
13 | 3.02 | B4
14 | 3.04 | B6
15 | 3.07 | B8
16 | 3.04 | B9
17 | 3.08 | B10
18 | 3.06 | B11

The binders below were run against human IgG3 antibody (#I5654; Sigma-Aldrich) (human) (assay: ELISA).

Row | OD | Binder
19 | 2.99 | B2
20 | 3.08 | B3
21 | 3.06 | B4
22 | 3.05 | B5
23 | 3.14 | B6
24 | 3.08 | B7
25 | 3.02 | B8
26 | 3.12 | B9
27 | 3.11 | B10
28 | 3.02 | B11

Each binder was assayed against human IgG4 antibody (#I4639; Sigma-Aldrich) (human) (assay: ELISA).

Row | OD | Binder
29 | 3.08 | B2
30 | 3.09 | B4
31 | 3.16 | B6
32 | 3.07 | B8
33 | 3.11 | B9
34 | 3.17 | B10
35 | 3.06 | B11

The binders below were run against human serum-derived IgA polyclonal antibody (#I4036; Sigma-Aldrich) (human) (assay: ELISA).

Row | OD | Binder
36 | 3.03 | B2
37 | 3.11 | B3
38 | 3.06 | B4
39 | 3 | B8
40 | 3.06 | B9

The binders below were run against human serum-derived IgG polyclonal antibody (#I4506; Sigma-Aldrich) (human) (assay: ELISA).

Row | OD | Binder
41 | 3.01 | B4
42 | 3.1 | B6
43 | 3.01 | B9
44 | 3.05 | B10
45 | 3.04 | B11

What follows are binders tested against human serum-derived IgG polyclonal antibody (#I4506; Sigma-Aldrich) (human) (assay: SPR, lysate, human IgG chip).

Row | koff [s⁻¹] | Binder
46 | 0.00175 | B1
47 | 0.0008 | B3
48 | 0.00088 | B4
49 | 0.000838 | B5
50 | 0.000571 | B6
51 | 0.000859 | B7
52 | 0.000278 | B9
53 | 0.000742 | B10
54 | 0.000408 | B11

These binders were tested against human serum-derived IgA polyclonal antibody (#I4036; Sigma-Aldrich) (human) (assay: SPR, lysate, human IgA chip).

Row | koff [s⁻¹] | Binder
55 | 0.000181 | B2
56 | 9.88e-05 | B8

These binders were tested against human IgG1 antibody (#I5154; Sigma-Aldrich) (human) (assay: SPR, single cycle kinetics, IgG1 chip).

Row | Kd [nM] | koff [s⁻¹] | kon [M⁻¹ s⁻¹] | Binder
57 | 4.8 | 0.00012 | 25000 | B12
58 | 40 | 0.0004 | 9900 | B13
59 | 11 | 0.00013 | 11000 | B14
60 | 24 | 0.0017 | 71000 | B15
61 | 2.5 | 0.00032 | 130000 | B16
62 | 0.55 | 3.7e-05 | 67000 | B17
